These are literature values, as cited in paper PMC6289583.

One series addresses ICAM-2 (Homo sapiens) (UniProt P13598).
Another series addresses EBP50 (Homo sapiens) (UniProt O14745). The experiment in a line: SPR.
Another series concerns the target Moesin (UniProt P26038).

Chain of Ezrin (P15311 whole entry): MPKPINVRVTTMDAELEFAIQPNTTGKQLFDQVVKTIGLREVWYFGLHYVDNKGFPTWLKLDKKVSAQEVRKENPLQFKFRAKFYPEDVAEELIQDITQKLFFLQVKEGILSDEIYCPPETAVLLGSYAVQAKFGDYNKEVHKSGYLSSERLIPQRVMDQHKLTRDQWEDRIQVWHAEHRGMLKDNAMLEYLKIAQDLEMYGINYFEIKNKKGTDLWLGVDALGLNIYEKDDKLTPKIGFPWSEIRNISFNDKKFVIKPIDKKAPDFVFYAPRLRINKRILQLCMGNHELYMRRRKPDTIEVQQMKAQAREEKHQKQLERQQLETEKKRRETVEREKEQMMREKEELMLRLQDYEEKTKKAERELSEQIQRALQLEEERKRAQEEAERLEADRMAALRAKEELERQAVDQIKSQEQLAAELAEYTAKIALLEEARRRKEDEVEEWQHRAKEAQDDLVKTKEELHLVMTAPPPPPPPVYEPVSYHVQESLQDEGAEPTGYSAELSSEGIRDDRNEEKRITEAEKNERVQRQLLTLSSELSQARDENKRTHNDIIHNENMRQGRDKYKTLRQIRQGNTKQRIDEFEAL
Chain of Moesin (P26038 2-577): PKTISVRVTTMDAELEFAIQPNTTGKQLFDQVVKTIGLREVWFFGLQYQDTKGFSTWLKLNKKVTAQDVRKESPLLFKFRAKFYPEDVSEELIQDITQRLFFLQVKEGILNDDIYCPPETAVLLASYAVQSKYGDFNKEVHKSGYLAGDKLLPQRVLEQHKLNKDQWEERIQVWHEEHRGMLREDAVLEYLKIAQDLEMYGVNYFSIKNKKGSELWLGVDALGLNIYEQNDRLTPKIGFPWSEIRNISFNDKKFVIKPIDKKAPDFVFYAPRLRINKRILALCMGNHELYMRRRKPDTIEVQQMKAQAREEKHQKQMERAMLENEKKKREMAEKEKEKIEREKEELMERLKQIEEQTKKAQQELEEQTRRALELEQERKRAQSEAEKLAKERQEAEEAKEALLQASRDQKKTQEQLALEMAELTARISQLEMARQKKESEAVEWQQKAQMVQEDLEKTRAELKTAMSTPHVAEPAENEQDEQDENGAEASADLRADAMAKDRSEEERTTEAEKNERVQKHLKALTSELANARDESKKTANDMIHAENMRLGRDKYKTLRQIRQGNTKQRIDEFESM
Chain of CD44 cytoplasmic domain (P16070 671-742): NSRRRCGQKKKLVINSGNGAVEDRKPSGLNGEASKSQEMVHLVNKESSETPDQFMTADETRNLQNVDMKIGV
Chain of ICAM-2 (Homo sapiens) (P13598 25-275): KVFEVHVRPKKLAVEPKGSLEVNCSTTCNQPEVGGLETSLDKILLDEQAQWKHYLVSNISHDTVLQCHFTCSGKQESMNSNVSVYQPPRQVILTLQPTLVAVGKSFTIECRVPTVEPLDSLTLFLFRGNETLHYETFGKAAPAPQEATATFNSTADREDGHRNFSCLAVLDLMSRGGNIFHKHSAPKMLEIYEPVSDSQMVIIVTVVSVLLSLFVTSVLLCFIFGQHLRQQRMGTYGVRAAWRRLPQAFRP
Chain of EBP50 (Homo sapiens) (O14745 2-358): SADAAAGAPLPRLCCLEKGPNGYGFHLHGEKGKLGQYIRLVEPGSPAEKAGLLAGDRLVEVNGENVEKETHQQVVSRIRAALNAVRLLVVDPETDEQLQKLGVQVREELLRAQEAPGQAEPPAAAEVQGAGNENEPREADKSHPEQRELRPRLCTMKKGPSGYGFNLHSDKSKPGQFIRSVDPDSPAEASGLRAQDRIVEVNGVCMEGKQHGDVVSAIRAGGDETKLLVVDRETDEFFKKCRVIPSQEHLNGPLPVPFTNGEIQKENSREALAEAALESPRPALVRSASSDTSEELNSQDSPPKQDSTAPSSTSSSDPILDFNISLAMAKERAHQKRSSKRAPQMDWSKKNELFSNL

As to Ezrin (from UniProt P15311), the Kd was 330 nM with ICAM-2 (Homo sapiens) and 58 nM in the series with EBP50 (Homo sapiens).

On to “CD44 cytoplasmic domain (from UniProt P16070)”, for which the Kd in the series with Moesin is 9.3 nM.
